Source: patent publication US20120213844A1 (ALZA, published 2012)
Read-outs that look alike come from different tables or passages of the source. Positions of bridges follow the written chain, without caps; N, C: chain ends. No end group written: not given here.

Key:
[1] = molecular target: T1, human EGFR on tumor cells (human, UniProt P00533 25-1210); test: cell-based or functional assay
Control-MMB (CNTO 360) [2] = molecular target: T2, Control-MMB (CNTO 360) (Homo sapiens (Human), UniProt P0DOX5 111-449 = IgG part); test: phage ELISA on coated Control-MMB in the presence of EGF [panel B]
T2 construct: MMB scaffold without a peptide; described as human IgG1 heavy chain dimer lacking the variable and most of the CH1 domains; also called blank mimetibody scaffold protein
Procedure: (§1) The protein solution was removed and wells were rinsed twice with Tris-Buffered Saline containing 0.05% Tween-20 (TBS-T) using a plate washer (Embla). The wells were blocked with Starting Block in TBS for 1 hr at room temperature and rinsed twice with TBS-T. An equal volume of phage supernatant and Starting Block in TBS were incubated in the wells for 1 hr at room temperature, and the wells were rinsed five times with TBS-T. Anti-M13/horseradish peroxidase conjugate (Amersham), diluted 1:5000 in Starting Block in TBS, was added into the wells and incubated for 1 hour at room temperature, and then the wells were rinsed five times with TBS-T. Finally, chemiluminescent peroxidase substrate (Roche) was added to the wells, and chemiluminescence was measured on a Tecan plate reader.
(§2) Confirmatory Phage ELISA. […] The binding reaction was incubated for 1 hr at room temperature, and then bound phage were detected with anti-M13/HRP as above. For ELISAs with biotinylated receptors, streptavidin at 5 μg/ml was coated in the wells overnight at 4° C. […] The wells were rinsed with TBS-T and then blocked with Starting Block. Bound phage were washed and detected with anti-M13/HRP as described above.

Streptavidin = molecular target: T3, Streptavidin; test: phage ELISA on streptavidin-coated wells without receptor [panel C]
T3 construct: also called Streptavidin alone; SA
Procedure: as §1, §2

[3] = molecular target: T4, sEGFR-MMB (dimeric sEGFR mimetibody) (human); test: phage ELISA on coated sEGFR-MMB, chemiluminescence (background typically <200 units)
T4 construct: Disulfide-linked homodimer: QIQ, sEGFR, flexible linker, J segment, human IgG1 hinge, CH2, CH3; also called sEGFR-Fc; dimeric EGFR
T4 sequence (chain, as listed by the source limits assumed): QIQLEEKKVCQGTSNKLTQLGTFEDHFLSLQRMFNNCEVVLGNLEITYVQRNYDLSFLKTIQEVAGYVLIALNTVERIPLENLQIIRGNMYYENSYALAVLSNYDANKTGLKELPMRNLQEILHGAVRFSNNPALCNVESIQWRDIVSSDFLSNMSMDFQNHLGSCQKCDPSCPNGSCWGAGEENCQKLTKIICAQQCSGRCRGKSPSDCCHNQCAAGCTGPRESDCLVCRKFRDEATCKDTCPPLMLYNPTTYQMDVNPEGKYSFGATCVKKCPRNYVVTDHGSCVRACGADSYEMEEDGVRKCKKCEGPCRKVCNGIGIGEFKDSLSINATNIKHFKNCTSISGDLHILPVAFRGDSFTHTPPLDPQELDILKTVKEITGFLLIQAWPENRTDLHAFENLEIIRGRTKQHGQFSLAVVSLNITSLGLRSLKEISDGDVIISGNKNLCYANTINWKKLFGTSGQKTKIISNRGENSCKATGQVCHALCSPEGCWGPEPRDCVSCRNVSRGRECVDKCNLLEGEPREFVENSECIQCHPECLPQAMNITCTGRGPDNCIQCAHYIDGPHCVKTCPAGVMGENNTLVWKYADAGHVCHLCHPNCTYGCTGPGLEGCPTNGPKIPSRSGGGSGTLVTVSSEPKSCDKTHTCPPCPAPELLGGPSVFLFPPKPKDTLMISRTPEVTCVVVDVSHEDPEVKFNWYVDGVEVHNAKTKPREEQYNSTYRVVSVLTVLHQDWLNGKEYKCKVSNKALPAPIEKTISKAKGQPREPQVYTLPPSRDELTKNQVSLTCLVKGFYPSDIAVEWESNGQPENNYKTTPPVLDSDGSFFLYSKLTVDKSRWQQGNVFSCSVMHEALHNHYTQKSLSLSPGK
Procedure: as §1

[4] = molecular target: T1, human EGFR on tumor cells; test: flow cytometry on A431 cells, without EGF
[5] = molecular target: T4, sEGFR-MMB (dimeric sEGFR mimetibody); test: phage ELISA on coated sEGFR-MMB, chemiluminescence (background typically <200 units); remark: listed apart in the source
Procedure: as §1

[6] = molecular target: T4, sEGFR-MMB (dimeric sEGFR mimetibody); test: as above; remark: listed apart in the source
Procedure: as §1

[7] = molecular target: T4, sEGFR-MMB (dimeric sEGFR mimetibody); test: as above; remark: listed apart in the source
Procedure: as §1

[8] = molecular target: T4, sEGFR-MMB (dimeric sEGFR mimetibody); test: as above; remark: listed apart in the source
Procedure: as §1

Control-MMB (CNTO 360) [9] = molecular target: T2, Control-MMB (CNTO 360); test: phage ELISA, Control-MMB coated at 5 ug/ml
Procedure: The plates were held overnight at room temperature, washed twice with TBST (0.5M Tris Base, 9% NaCl, 0.05% tween, pH 7.6), and loaded with 200 μL per well of Starting Block (Pierce). […] The plates were held at room temperature for 1.5 hours for blocking. Plates were then washed twice with TBST and phage were added. The phage solutions were crude phage supernatant from overnight cultures diluted four-fold with Starting Block. After a one-hour incubation, the plates were washed thrice with TBST and 100 μL of a 1:5000 dilution of phage binding antibody conjugate (α-M13-HRP) was added to the wells. […] After a one-hour incubation the plates were washed five times with TBST, 100 μL of POD (BM Chemiluminescence ELISA substrate; Roche Applied Science) was added, and chemiluminescene recorded.

B1: P190-DOXIL (peptide)
peptide: DPCTWEVWGRECLQ
modifications: disulfide 3-12 (inferred); not fully specified (N-terminus); also: inserted into doxorubicin-loaded liposomes
- IC50 D4, cell killing of MDA-MB-468 cells (1 h treatment, 4 days) [1]: 120 µg/mL
- IC50 D6, cell killing of MDA-MB-468 cells (1 h treatment, 6 days) [1]: 35 µg/mL

B2: phage clone P176 (SEQ ID NO: 48) (peptide)
chain: GGGKTCVSTTFDLWFVCFAGGGSGGSGG
notes: pIX phagemid display, library S20; also called PP176; not shown: M13 phage coat protein pIX (MSVL...)
- binding result (Control-MMB (CNTO 360) [2]): no binding
- binding result (Streptavidin): no binding
- ELISA [3]: 37400 units

B3: P190-MMB construct 4316 (Fc fusion)
chain: GGDPCTWEVWGRECLQGGGGSGGGGSGGGGSGGGGSCPPCPAPEAAGGPSVFLFPPKPKDTLMISRTPEVTCVVVDVSQEDPEVQFNWYVDGVEVHNAKTKPREEQFNSTYRVVSVLTVLHQDWLNGKEYKCKVSNKGLPSSIEKTISKAKGQPREPQVYTLPPSQEEMTKNQVSLTCLVKGFYPSDIAVEWESNGQPENNYKTTPPVLDSDGSFFLYSRLTVDKSRWQEGNVFSCSVMHEALHNHYTQKSLSLSLGK
notes: Human IgG4 hinge-CH2-CH3 with two Leu to Ala
- fold increase in FACS signal [4]: ~10 fold

B4: phage clone displaying SEQ ID NO: 10 (S15 hit) (peptide)
chain: GGGYRLFVDESIFFCTRLGGGSGGSGG
notes: pIX phagemid display, library S15; not shown: M13 phage coat protein pIX (MSVL...)
- ELISA [5]: 3080 units

B5: phage clone displaying SEQ ID NO: 11 (S15 hit) (peptide)
chain: GGGELGLPTLLCWPTDTLGGGSGGSGG
notes: as for B4
- ELISA [5]: 9380 units

B6: phage clone displaying SEQ ID NO: 12 (S15 hit) (peptide)
chain: GGGVSGILPILVCHPAATGGGSGGSGG
notes: as for B4
- ELISA [5]: 1110 units

B7: phage clone P175 (SEQ ID NO: 13) (peptide)
chain: GGGLPDDSLPELICKVRGGGGSGGSGG
notes: pIX phagemid display, library S15; also called PP175; not shown: M13 phage coat protein pIX (MSVL...)
- ELISA [5]: 6790 units

B8: phage clone displaying SEQ ID NO: 14 (S15 hit) (peptide)
chain: GGGHVSLQSLPELICVVSGGGSGGSGG
notes: as for B4
- ELISA [5]: 1360 units

B9: phage clone displaying SEQ ID NO: 15 (S15 hit) (peptide)
chain: GGGNWFSLPTLLCFPLNPGGGSGGSGG
notes: as for B4
- ELISA [5]: 3670 units

B10: phage clone displaying SEQ ID NO: 16 (S15 hit) (peptide)
chain: GGGSTITSLPTLQCWPILGGGSGGSGG
notes: as for B4
- ELISA [5]: 13300 units

B11: phage clone displaying SEQ ID NO: 17 (S15 hit) (peptide)
chain: GGGPIDDESLPVLYCVTSGGGSGGSGG
notes: as for B4
- ELISA [5]: 1780 units

B12: phage clone displaying SEQ ID NO: 18 (S15 hit) (peptide)
chain: GGGPIFSSLPVLYCTSQLGGGSGGSGG
notes: as for B4
- ELISA [5]: 1420 units

B13: phage clone displaying SEQ ID NO: 19 (S15 hit) (peptide)
chain: GGGGADTLPDLLCWESSLGGGSGGSGG
notes: as for B4
- ELISA [5]: 5720 units

B14: phage clone displaying SEQ ID NO: 20 (S15 hit) (peptide)
chain: GGGTVFTLPELVCVVAGTGGGSGGSGG
notes: as for B4
- ELISA [5]: 1520 units

B15: phage clone displaying SEQ ID NO: 21 (S15 hit) (peptide)
chain: GGGLPDLICAVDSGTSGAGGGSGGSGG
notes: as for B4
- ELISA [5]: 1160 units

B16: phage clone displaying SEQ ID NO: 23 (S18 hit) (peptide)
chain: GGGAGCIAFVDVVYCARGGGSGGSGG
notes: pIX phagemid display, library S18; not shown: M13 phage coat protein pIX (MSVL...)
- ELISA [6]: 6380 units

B17: phage clone displaying SEQ ID NO: 24 (S18 hit) (peptide)
chain: GGGAKCIAFGNSVYCLNGGGSGGSGG
notes: as for B16
- ELISA [6]: 31500 units

B18: phage clone displaying SEQ ID NO: 25 (S18 hit) (peptide)
chain: GGGRDCIIFDKTVYCVIGGGSGGSGG
notes: as for B16
- ELISA [6]: 17100 units

B19: phage clone displaying SEQ ID NO: 26 (S18 hit) (peptide)
chain: GGGKHCILFEKTVYCAKGGGSGGSGG
notes: as for B16
- ELISA [6]: 9110 units

B20: phage clone displaying SEQ ID NO: 27 (S18 hit) (peptide)
chain: GGGDSCIQFANLLYCAIGGGSGGSGG
notes: as for B16
- ELISA [6]: 53200 units

B21: phage clone displaying SEQ ID NO: 28 (S18 hit) (peptide)
chain: GGGTDCIRFGVLWYCLVGGGSGGSGG
notes: as for B16
- ELISA [6]: 4750 units

B22: phage clone displaying SEQ ID NO: 29 (S18 hit) (peptide)
chain: GGGRACITFGKVVYCEVGGGSGGSGG
notes: as for B16
- ELISA [6]: 30700 units

B23: phage clone displaying SEQ ID NO: 30 (S18 hit) (peptide)
chain: GGGAYCSFVAGDLVCQVGGGSGGSGG
notes: as for B16
- ELISA [6]: 19800 units

B24: phage clone P173 (SEQ ID NO: 31) (peptide)
chain: GGGTDCVIFGLETYCLRGGGSGGSGG
notes: pIX phagemid display, library S18; also called PP173; not shown: M13 phage coat protein pIX (MSVL...)
- ELISA [6]: 37900 units

B25: phage clone displaying SEQ ID NO: 32 (S18 hit) (peptide)
chain: GGGSDCVLFGSKLFCSAGGGSGGSGG
notes: as for B16
- ELISA [6]: 35300 units

B26: phage clone displaying SEQ ID NO: 33 (S18 hit) (peptide)
chain: GGGTDCVRFGETIYCIVGGGSGGSGG
notes: as for B16
- ELISA [6]: 13300 units

B27: phage clone displaying SEQ ID NO: 34 (S18 hit) (peptide)
chain: GGGYDCVSFGAVAYCPQGGGSGGSGG
notes: as for B16
- ELISA [6]: 3200 units

B28: phage clone displaying SEQ ID NO: 35 (S18 hit) (peptide)
chain: GGGRGCVVFGDNIYCIVGGGSGGSGG
notes: as for B16
- ELISA [6]: 22000 units

B29: phage clone P180 (SEQ ID NO: 37) (peptide)
chain: GGGMICYLVDSGNIICYKGGGSGGSGG
notes: pIX phagemid display, library S19; also called PP180; not shown: M13 phage coat protein pIX (MSVL...)
- ELISA [7]: 8810 units

B30: phage clone displaying SEQ ID NO: 38 (S19 hit) (peptide)
chain: GGGYDCMIRADGSLICWCGGGSGGSGG
notes: pIX phagemid display, library S19; not shown: M13 phage coat protein pIX (MSVL...)
- ELISA [7]: 1290 units

B31: phage clone P179 (SEQ ID NO: 39) (peptide)
chain: GGGGPCVLIRDYYLLCLEGGGSGGSGG
notes: pIX phagemid display, library S19; also called PP179; not shown: M13 phage coat protein pIX (MSVL...)
- ELISA [7]: 14000 units

B32: phage clone displaying SEQ ID NO: 40 (S19 hit) (peptide)
chain: GGGAFCRLDFNQWLTCLVGGGSGGSGG
notes: as for B30
- ELISA [7]: 2580 units

B33: phage clone displaying SEQ ID NO: 41 (S19 hit) (peptide)
chain: GGGCDCREAVSASLVCRYGGGSGGSGG
notes: as for B30
- ELISA [7]: 3350 units

B34: phage clone displaying SEQ ID NO: 43 (S20 hit) (peptide)
chain: GGGPTCDSATRRVLTICADGGGSGGSGG
notes: pIX phagemid display, library S20; not shown: M13 phage coat protein pIX (MSVL...)
- ELISA [3]: 5420 units

B35: phage clone displaying SEQ ID NO: 44 (S20 hit) (peptide)
chain: GGGWMCFLEGYGASLMCQCGGGSGGSGG
notes: as for B34
- ELISA [3]: 4800 units

B36: phage clone displaying SEQ ID NO: 45 (S20 hit) (peptide)
chain: GGGDSCCSFLTDGTVVCSLGGGSGGSGG
notes: as for B34
- ELISA [3]: 9540 units

B37: phage clone displaying SEQ ID NO: 46 (S20 hit) (peptide)
chain: GGGYICTPSDIDSWYICYLGGGSGGSGG
notes: as for B34
- ELISA [3]: 6620 units

B38: phage clone displaying SEQ ID NO: 47 (S20 hit) (peptide)
chain: GGGSVCVGTAFPGWMVCGPGGGSGGSGG
notes: as for B34
- ELISA [3]: 4770 units

B39: phage clone displaying SEQ ID NO: 49 (S20 hit) (peptide)
chain: GGGLLCATTSFRDWFVCFTGGGSGGSGG
notes: as for B34
- ELISA [3]: 4510 units

B40: phage clone P174 (SEQ ID NO: 51) (peptide)
chain: GGGSGCLDALWQCVYGGGSGGSGG
notes: pIX phagemid display, library S16; also called PP174; not shown: M13 phage coat protein pIX (MSVL...)
- ELISA [8]: 34600 units

B41: phage clone P177 (SEQ ID NO: 52) (peptide)
chain: GGGDACTMVFLWCSLGGGSGGSGG
notes: pIX phagemid display, library S16; also called PP177; not shown: M13 phage coat protein pIX (MSVL...)
- ELISA [8]: 8660 units

B42: phage clone P178 (SEQ ID NO: 53) (peptide)
chain: GGGRWCYFWWITICELGGGSGGSGG
notes: pIX phagemid display, library S17; also called PP178; not shown: M13 phage coat protein pIX (MSVL...)
- ELISA [8]: 7910 units

B43: phage displaying P190 on pIX (SEQ ID NO: 55) (peptide)
chain: GGGDPCTWEVWGRECLQGGGSGGSGG
notes: pIX phagemid display, library S18; on average one peptide per particle; also called PHPEP190; pIX-190; not shown: M13 phage coat protein pIX (MSVL...)
- binding result (Control-MMB (CNTO 360) [9]): no binding
